Article PMC12081870 (Communications Biology, 2025)

B1: Sla1 SH3#1-3: SH3#1-3 (aa 5-413), fragment with all three SH3 domains (protein)
chain: LGIYRAVYAYEPQTPEELAIQEDDLLYLLQKSDIDDWWTVKKRVIGSDSEEPVGLVPSTYIEEAPVLKKVRAIYDYEQVQNADEELTFHENDVFDVFDDKDADWLLVKSTVSNEFGFIPGNYVEPENGSTSKQEQAPAAAEAPAATPAAAPASAAVLPTNFLPPPQHNDRARMMQSKEDQAPDEDEEGPPPAMPARPTATTETTDATAAAVRSRTRLSYSDNDNDDEEDDYYYNSNSNNVGNHEYNTEYHSWNVTEIEGRKKKKAKLSIGNNKINFIPQKGTPHEWSIDKLVSYDNEKKHMFLEFVDPYRSLELHTGNTTTCEEIMNIIGEYKGASRDPGLREVEMASKSKKRGIVQYDFMAESQDELTIKSGDKVYILDDKKSKDWWMCQLVDSGKSGLVPAQFIEPV
modifications: left off: GST, end not stated, cleaved
notes: SH3#1-3 (aa 5-413), fragment with all three SH3 domains
B2: Sla1 SH3#2: second SH3 domain of Sla1, GST-Sla1 SH3#2 in pGEX4T1 (protein)
chain: PVLKKVRAIYDYEQVQNADEELTFHENDVFDVFDDKDADWLLVKSTVSNEFGFIPGNYVEPENG
modifications: left off: GST, end not stated, cleaved
notes: second SH3 domain of Sla1, GST-Sla1 SH3#2 in pGEX4T1

Assays:
actin [1] = assay: TIRF assay, nucleation of actin filaments (filament number); type: biochemical, rabbit
Experimental: To assess how filaments generated in the presence or absence of Arp2/3 differ, a TIRF-based assay was used. Videos of representative assays are shown in Supplementary Videos 1, 2, 3 and combined in Supplementary Video 4.
(§1) Actin filament growth rate assays. Total Internal Reflection microscopy (TIRFm) was performed using a method modified from[58] using purified rabbit muscle actin and Alexa488 actin (Cytoskeleton, Inc) at a 4:1 ratio. Glass coverslips (Deckgläser) were cleaned using a modification of the method described. Briefly, coverslips were rinsed with gentle agitation in acetone (30 min), then water (5 min) then cleaned in Piranha solution (13 ml concentrated sulphuric acid and 6 ml hydrogen peroxide) for 90 min before rinsing with distilled water and ethanol, drying and coating with 1 mg/ml mPEG silane MW 2000 (Layssan Bio). TIRF reaction buffers 10× KMEI, GOC mixture, and methyl cellulose (400 cP, Sigma) were prepared in advance. 10× KMEI buffer (500 mM KCl, 100 mM Imidazole (pH 7.0), 10 mM MgCl2, 10 mM EGTA (pH 7.0)) was filtered through a sterile syringe-filter device (0.22 μm, Thermo Fisher Scientific) and stored at room temperature. GOC mixture was prepared by dissolving 20 mg of Catalase (Calbiochem) and 100 mg of Glucose-oxidase in 10 ml cold water. […]

actin [2] = assay: TIRF assay, actin filament growth (elongation) rate; type: biochemical, rabbit; conditions: 0.5 µM actin, vs actin only
Experimental: as §1, with “water. Undissolved particles were cleared by ultracentrifugation and 50 μl aliquots from the upper 90% of the supernatant were stored at −20 °C. 50 ml of 2% methyl cellulose was prepared by dissolving 1 g methylcellulose in 25 ml of Milli-Q water preheated to 65 °C, before adding 25 ml of room temperature water and rotating overnight at 4 °C.” for “water.”

[3] = system: Las17-GFP and Arc15-mCherry; assay: Dual-reporter lifetimes, Las17-GFP and Arc15-mCherry co-localisation; type: cell-based, Saccharomyces cerevisiae; conditions: Las17-GFP / Arc15-mCherry dual-label strain
Experimental: A size bar for each set of kymographs is shown on the upper right of each set. For (A) and (C) size bar is 100 nm and for B is 200 nm. Error bars are standard deviation. […] The site of interest is labelled in the first two time panels with a white arrow. Exposure 0.5 sec with 1 second time lapse. 120 s recorded. […] Error bars are standard deviation.
Individual spots were analysed for lifetimes and behaviours.
Yeast strains used in this study are listed in Supplementary table 2 and plasmids used in Supplementary table 1. Unless stated otherwise, cells were grown with rotary shaking at 30 °C in liquid YPD medium (1% yeast extract, 2% Bacto-peptone, 2% glucose supplemented with 40 μg/ml adenine) or in synthetic medium (0.67% yeast nitrogen base, 2% glucose) with appropriate supplements. […] DNA cassettes carrying mutations for integration were transformed into KAY1801. Mutant colonies were counter-selected on minimal medium, containing 0.005% uracil and 0.1% 5’-Fluoroorotic Acid (5-FOA; Melford laboratories). Allele exchange, in growing Ura3^-, 5-FOA resistant colonies, was confirmed by PCR and sequencing.
For live-cell imaging, cells expressing tagged proteins were visualised after growing to early log phase. Analysis was carried out at room temperature (22 °C). […] Images were taken simultaneously on separate scientific complementary metal oxide semiconductor (sCMOS) cameras (30 msec exposure). Seven 250 nm sections were acquired every 0.5 sec (241 time points). The stacks were then deconvolved and processed, using SoftWorx. Protein localisation and lifetime was analysed from those projections. Fiji software was used to assemble movies and kymographs, to track and record behaviour of individual spots. Graphs show mean ± SD. […] Where appropriate data was tested for normal distribution using Graphpad Prism software, and then subjected to the appropriate test as described in the methods for each experiment type.

[4] = molecular target: Las17 PPR-N fragment (residues 300-422); assay: Biolayer Interferometry (BLI), Sla1 SH3 domains to Las17 PPR-N; type: binding, Saccharomyces cerevisiae; conditions: Biolayer Interferometry
Description: (§2) To investigate binding characteristics of the SH3 domains further, Sla1 SH3 protein domains were purified. Three Sla1 SH3 single domains, tandem domains Sla1 SH3#1&2, Sla1 SH3#1&2 W108A (in which the W108A mutation prevents proline motif binding by SH3#2 but not SH3#1) and a fragment with all three SH3 domains were expressed recombinantly and purified. […] This outcome is in line with original research of Rodal and colleagues and with more recent studies of avidity developed by Williamson, which highlighted the importance of tandem binding SH3 domains[13],[27].
Biolayer Interferometry (BLI) assays were performed using an OctetⓇ R2 (Sartorius). Protein samples were placed into the wells of a polystyrene plate (ProxiPlateTM, Perkin Elmer) and binding measured either with Octet NTA Biosensors or Octet GST Biosensors. Screening assays were performed to determine the optimum loading concentration and time for each binding pair to ensure that the probe was not saturated. All experiments were repeated three times, each time with newly prepared protein. Analysis and visualisation were performed using GraphPad Prism 10.0.2.

G-actin = assay: MST, Las17 300-422 to labelled G-actin in presence or absence of Sla1 SH3#1-3 (competition); type: binding, rabbit; conditions: Sla1 SH3#1-3 4.5 µM, actin 50 nM, Las17(300–422) 0.29-9.5 µM
Experimental: The experiment was then repeated with the addition of Sla1 SH3#1-3 fragment at 4.5 µM.
Microscale Thermophoresis (MST) assays were performed as described previously[15]. Briefly, rabbit muscle actin in G-buffer minus DTT was lysine labelled using Monolith NT^TM Protein Labelling Kit RED-Malemide (NanoTemper Technologies, Munich, Germany). […] Each reaction was then loaded into Monolith NT.115 Premium Treated Capillaries (NanoTemper Technologies) and thermophoresis was measured in a Monolith NT.115 Microscale Thermophoresis device (NanoTemper Technologies). Thermophoresis was measured at 20% red LED power and 40% IR laser power at 22°C. Fnorm was calculated from the ratio of fluorescence before heating and after the new equilibrium had been reached.

[5] = system: Las17-Arp2/3 mediated actin polymerisation; assay: Pyrene actin assay, inhibition of Las17-Arp2/3 mediated actin polymerisation by Sla1 SH3 domains; type: biochemical; conditions: Actin 3 µM, Las17 300 nM, Sla1 SH3 domains 300 nM each (1:1), with Arp2/3
Experimental: SH3 domains of Sla1 are numbered #1, #2 and #3. […] PP in pink boxes indicate poly-proline tracts in this region. Other regions of Las17 are included but not to scale. B Representative pyrene actin assays show inhibition of Las17-Arp2/3 mediated actin polymerisation by Sla1-SH3 domains when added as separate domains (orange #1, green #2 or cyan #3) or on a single peptide (red). […] Sla1 SH3#1 (aa 3-68), SH3#3 (aa 354-413), SH3#1-2 (aa 5-131), SH3#1-3 (aa 5-413).
Fluorometry assays were performed as described previously. 370 μl assays used 3 μM actin as indicated unless otherwise specified. Pyrene-actin was added to 5%, mixed thoroughly, and added to the fluorometry cuvette. Polymerization salts, 10× KME (500 mM KCl, 10 mM MgCl2, 10 mM EGTA, 100 mM Tris-HCl [pH 8.0]) were mixed with fragments or G buffer to give final concentration of 0.5× KME before reading fluorescence. […] Experiments were carried out three separate times with different protein preparations and a representative graph shown.

[6] = system: Las17-Arp2/3 mediated actin polymerisation; conditions: 15 nM Las17, 1 µM Sla1 SH3 domains, ref [13]; cited from earlier work
Description: In Sla1 the first two SH3 domains are immediately juxtaposed with no linker. There are then 236 residues before the third SH3 domain (Fig. 1A).

Las17 = assay: Microscale thermophoresis, Sla1 SH3#2 to Las17; type: binding, Saccharomyces cerevisiae; conditions: could not be saturated within the concentration range
Description: as §2
Microscale Thermophoresis (MST) assays were performed as described previously. Briefly, rabbit muscle actin in G-buffer minus DTT was […] using Monolith NT^TM Protein Labelling Kit RED-Malemide (NanoTemper Technologies, Munich, Germany). […] Each reaction was then loaded into Monolith NT.115 Premium Treated Capillaries (NanoTemper Technologies) and thermophoresis was measured in a Monolith NT.115 Microscale Thermophoresis device (NanoTemper Technologies). Thermophoresis was measured at 20% red LED power and 40% IR laser power at 22°C. Fnorm was calculated from the ratio of fluorescence before heating and after the new equilibrium had been reached. […] Each experiment was carried out three separate times with protein from different protein preparations and mean ± SE shown except for Fig. 7a where mean ± SD is shown.

[7] = system: Las17 12mer peptides / GST-Sla1 SH3 domains; assay: Peptide spot array (Celluspot) of Las17 12mers probed with GST-Sla1 SH3 domains; type: binding, Saccharomyces cerevisiae; conditions: GST-Sla1 SH3 domain on 12mer array, 2-residue offset, anti-GST HRP, chemiluminescence
Experimental: A Purified individual GST-tagged Sla1 SH3 domains were used to probe a Celluspot array consisting of a series of 12 amino acid peptides starting with residue 181, and subsequent peptides starting at two amino acid intervals, up to amino acid 540. Binding of GST-Sla1 SH3 to the array was identified by further probing of HRP-tagged anti-GST and subsequent visualisation using chemiluminescence. […] Error bars are standard error of mean.
They were incubated with GST fused SH3 domains of Sla1 or with GST alone, as described in ref.[57]. Membranes were probed with HRP tagged anti-GST, and the presence of SH3-GST fusion protein was detected with ECL chemiluminescent detection solution (Thermo Fisher Scientific).

Row | Molecule | increase in nucleation rate compared to actin alone (actin [1]) | number of filaments (actin [1]; 10 minute time point, 500 nM actin, 50 nM Las17, per unit area, errors are standard deviation, actin alone 16.3 ± 2.3) | effect on elongation rate of actin filaments (actin [2]) | duration of co-localization of Las17-GFP and Arc15-mCherry [3] | time of Arc15-mCherry alone after Las17 disassembly [3] | time of Las17 at the site before Arc15 is recruited [3] | Kd ([4]; Octet R2, Las17 (aa 300-422), three repeats with newly prepared protein, read-out: binding affinity (Kd)) | fold change in apparent Kd of actin for Las17 (G-actin) | fold change in apparent Kd of actin for Las17 (G-actin; listed as Sla1) | inhibition of Las17-Arp2/3 mediated actin polymerisation [5] | inhibition of actin polymerisation activity [6] | binding ([4]; result in words) | binding (Las17) | binding to Las17 peptide spots [7]
1 | Las17: Las17 fragment; residues not stated for TIRF; in b194 Las17 300–422; in b52 full length Las17-GFP in cells | two-three fold | 42.3 ± 7.0 | sufficient to increase the elongation rate of actin filaments | about 15 seconds | about 4 s | about 22 s |  |  |  |  |  |  |  | 
2 | B1 |  |  |  |  |  |  | 39 nM | 40 fold | 40.6 fold | substantial inhibition of actin polymerisation | about 85% |  |  | 
3 | B2 |  |  |  |  |  |  |  |  |  |  | about 80% | showed no binding | weak binding was detected | only showed weak binding to spots
